Reference: publication PMC8906540 (RNA, 2022)

Target: the molecule itself
Assay: SEC

B1: YloC protein of Bacillus subtilis, purified, 8×His-Sumo tag removed (enzyme, UniProt O34441 1-291, looked up)
chain: MIRSMTGFGSASKTQDDLSVSVELKSVNYRFKEVNARLPRPLLYFEDKLKQTILQHIQRGRIELFVSVDSDMLVEKRLEIDWPLLDEFVAAARDMKKRYQLSAEPDVMDFFKLDHVVQVHEEQTQNDKLEALIIDAAEEAVKGLCEMREKEGLLLAKDCLMHIDQLEELVRETELLAADVVSRYRERLYARIKEWTEDVLDESRLVTECAIFADRSDITEEITRLKSHFAQFRDILASGGAVGRKLDFLVQELNREANTIGSKANDHQITKLVVEMKSSIEKIKEQVQNIE
  stoichiometry N: ~6
